Laboratory results as given in patent US20200254071A1, “COMPOSITIONS AND METHODS FOR THROMBOEMBOLISM DISSOLUTION” (priority 2016, published 2020).

Key:
[1] = tested on: thrombus or embolus in cats with ATE; settings: cited from earlier work
[2] = tested on: thrombus or embolus in cats; settings: cited from earlier work
blood clots = test: thrombolytic activity of the single agents, inventor's private research study; assay type: in vivo; settings: single agent
Text: However, both agents can be dissolved in stomach acids, rendering certain dosage forms nearly useless as thrombolytic agents. This may explain why the potency of previous oral thrombolytics is decreased in comparison to injected thrombolytic agents. Enteric coatings reduce the active ingredients' rate of digestion in stomach acids, leading to enhanced efficacy of the active ingredient(s).

[3] = tested on: artificially induced thrombosis; settings: dogs, capsules orally; cited from earlier work
[4] = tested on: fibrinolytic activity in the plasma; test: oral administration of nattokinase: fibrinolytic activity in the plasma; assay type: in vivo
Text: There are no known studies that examine the efficacy of nattokinase as a thrombolytic agent in cats.

[5] = purified form; cited from earlier work
[6] = in vivo
Description: To ensure the efficacy of these two thrombolytic agents, an enteric coating is appropriate for some orally administered embodiments. The enteric coating allows the nattokinase and rutin bioflavonoid to travel through the acidic environment of the stomach without being dissolved. Nattokinase and rutin can then be absorbed into the bloodstream or circulation via the small intestine. Once absorbed, nattokinase remains active in the bloodstream for approximately 12 hours. In one embodiment, the enteric coating is composed of methacrylic acid copolymer and triethyl citrate. Additional ingredients may include, for example, arabinoglactan, microcrystalline cellulose, maltodextrin, stearic acid, croscarmellose sodium, silicon dioxide. During this clinical trial, participants were not on any other thrombolytic or fibrinolytic (blood thinning) agents.

streptokinase: veterinary drug with the potential to dissolve a thrombus or embolus
cats with pulses restored ([1]; fraction of 46 cats): about half
cats with motor function returned to their limbs ([1]; within 24 hours): 30%

tPA: tissue-plasminogen activator, veterinary drug with the potential to dissolve a thrombus or embolus
fatal complications due to metabolic acidosis and hyperkalemia ([2]; cats with ATE): 70%
cats with perfusion restored to their limbs ([2]; fraction of cats given the drug): about two-thirds

B1: nattokinase: naturally occurring proteolytic enzyme derived from natto, soybeans fermented with Bacillus subtilis natto (protein, UniProt P35835 107-381, looked up)
Subtilisin NAT: AQSVPYGISQIKAPALHSQGYTGSNVKVAVIDSGIDSSHPDLNVRGGASFVPSETNPYQDGSSHGTHVAGTIAALNNSIGVLGVAPSASLYAVKVLDSTGSGQYSWIINGIEWAISNNMDVINMSLGGPTGSTALKTVVDKAVSSGIVVAAAAGNEGSSGSTSTVGYPAKYPSTIAVGAVNSSNQRASFSSVGSELDVMAPGVSIQSTLPGGTYGAYNGTSMATPHVAGAAALILSKHPTWTNAQVRDRLESTATYLGNSFYYGKGLINVQAAAQ
thrombolytic activity (blood clots): demonstrated thrombolytic activity
lysis of the thrombi by angiography [3]: lysis of the thrombi was observed
fibrinolytic activity in the plasma and production of tissue plasminogen activator [4]: mild and frequent enhancement
optimum pH of enzyme [5]: 7
optimum temperature of enzyme [5]: 37 °C
time active in the bloodstream [6]: approximately 12 hours
